From US20240376185A1 (SMIVET B V, published 2024)

B1: SVT06-GS2-SVG13M4-H6 (bispecific antibody)
chain: QVQLQESGGGSVQAGGSLRLSCTASELSYDDYTIAWFRRAAGEGRVEDGEGVASITKSYDRAYDNKINYGHSVKGRFTISRDNAKNTVYLQMTDLLPSDTAVYYCALDITPPGGVGASLTEGFLFDYWGQGTQVTVSSGGGGSGGGSEVQLVESGGGLVQPGGSLRLSCEASGFTFDDYGMSWVRQAPGKGLEWVSSLTPNGGSTYYADSVKGRFTISRDNAKNTLYLQMNSLKPEDTALYYCAKNSYYGAMDYWGQGTQVTVSSHHHHHH
B2: SVT02 (VHH)
VHH: QVQLQQSGGGSVQAGGSLRLSCVGPQRTFSTYGMGWFRQAPGKEREFVAGINYKGDTTYYADSVKGRFTISRDNAKNTLYLQMDSLKPEDRAVYQCARKGGLGGDYRDAGQYRYWGQGTQVTVSS
B3: SVT02L (VHH)
VHH: B2 VHH
notes: yeast-produced
B4: SVT02-GS2-SVA12M2-H6 (bispecific antibody)
chain: QVQLQQSGGGSVQAGGSLRLSCVGPQRTFSTYGMGWFRQAPGKEREFVAGINYKGDTTYYADSVKGRFTISRDNAKNTLYLQMDSLKPEDRAVYQCARKGGLGGDYRDAGQYRYWGQGTQVTVSSGGGGSGGGSEVQLVESGGGLVQAGGSLRLSCAASGRTFSYYPMAWFRQAPGQEREFVAAIIGADTTYYADSLKGRFTISRDNAKNMVYLQMNSLKPEDTAVYYCAARNTYWSDVYYREGQYTNWGQGTQVTVSSHHHHHH
B5: SVT15-3FW4M-GS2-SVG06M4-H6 (bispecific antibody)
chain: QVQLQESGGGLVQTGGSLRLSCRASGRAFANYHFGWFRQAPGKDREFVASISWKGGSTYYANFALGRFTSSVDRAESSVYLQMSGLTPEDTATYYCAAHDGGDWNYHTGMDYWGQGTQVTVSSGGGGSGGGSEVQLVESGGALVQPGGSLRLSCAASGFPFSAYDMTWVRQAPGQGLEWVSTIHKSGGITTYADSVKGRFTISRDNAKNTLYLQMNNLESEDTAVYYCAKALRAHNSDYVGRNALGSWGQGTQVTVSSHHHHHH
B6: SVT03 (VHH)
VHH: QVQLQQSGGGSVQTGDSLTLSCTASGGSLNSYFVGWFRQSGGKEREFVSVIARTGRSTSYADSVKGRFTISRDNAANTVFLTMNNLRPDDTAIYYCAAVGRPGVLHLTQSYDYWGQGTQVTVSS
B7: SVT03L (VHH)
VHH: B6 VHH
notes: yeast-produced
B8: SVT15-3FW4M-GS2-SVG13M4-H6 (bispecific antibody)
chain: QVQLQESGGGLVQTGGSLRLSCRASGRAFANYHFGWFRQAPGKDREFVASISWKGGSTYYANFALGRFTSSVDRAESSVYLQMSGLTPEDTATYYCAAHDGGDWNYHTGMDYWGQGTQVTVSSGGGGSGGGSEVQLVESGGGLVQPGGSLRLSCEASGFTFDDYGMSWVRQAPGKGLEWVSSLTPNGGSTYYADSVKGRFTISRDNAKNTLYLQMNSLKPEDTALYYCAKNSYYGAMDYWGQGTQVTVSSHHHHHH
B9: SVT02-GS2-SVG13M4-H6 (bispecific antibody)
chain: QVQLQQSGGGSVQAGGSLRLSCVGPQRTFSTYGMGWFRQAPGKEREFVAGINYKGDTTYYADSVKGRFTISRDNAKNTLYLQMDSLKPEDRAVYQCARKGGLGGDYRDAGQYRYWGQGTQVTVSSGGGGSGGGSEVQLVESGGGLVQPGGSLRLSCEASGFTFDDYGMSWVRQAPGKGLEWVSSLTPNGGSTYYADSVKGRFTISRDNAKNTLYLQMNSLKPEDTALYYCAKNSYYGAMDYWGQGTQVTVSSHHHHHH

What was measured:
[1] = biological target: T1, tetanus neurotoxin (TeNT), authentic tetanus holotoxin (Clostridium tetani, UniProt P04958 2-1315); assay: BLI (Octet Red96): biotinylated TeNT on SA sensor, SDA as analyte
Target sequence in this assay (P04958 2-457 limits assumed, chain 1 of 2): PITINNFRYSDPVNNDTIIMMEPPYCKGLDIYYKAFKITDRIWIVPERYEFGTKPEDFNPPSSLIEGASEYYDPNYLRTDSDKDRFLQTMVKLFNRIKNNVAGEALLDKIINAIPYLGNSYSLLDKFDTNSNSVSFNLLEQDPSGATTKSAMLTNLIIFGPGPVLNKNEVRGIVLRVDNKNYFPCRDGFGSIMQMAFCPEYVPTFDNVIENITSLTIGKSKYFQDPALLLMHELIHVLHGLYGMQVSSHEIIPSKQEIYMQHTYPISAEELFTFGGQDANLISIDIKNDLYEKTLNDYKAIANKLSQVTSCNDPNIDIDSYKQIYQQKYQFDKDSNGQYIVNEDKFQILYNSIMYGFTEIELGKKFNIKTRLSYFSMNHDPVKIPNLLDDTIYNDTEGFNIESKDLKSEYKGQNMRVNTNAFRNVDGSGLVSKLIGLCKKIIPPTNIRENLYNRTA
Target sequence in this assay (P04958 458-1315 limits assumed, chain 2 of 2): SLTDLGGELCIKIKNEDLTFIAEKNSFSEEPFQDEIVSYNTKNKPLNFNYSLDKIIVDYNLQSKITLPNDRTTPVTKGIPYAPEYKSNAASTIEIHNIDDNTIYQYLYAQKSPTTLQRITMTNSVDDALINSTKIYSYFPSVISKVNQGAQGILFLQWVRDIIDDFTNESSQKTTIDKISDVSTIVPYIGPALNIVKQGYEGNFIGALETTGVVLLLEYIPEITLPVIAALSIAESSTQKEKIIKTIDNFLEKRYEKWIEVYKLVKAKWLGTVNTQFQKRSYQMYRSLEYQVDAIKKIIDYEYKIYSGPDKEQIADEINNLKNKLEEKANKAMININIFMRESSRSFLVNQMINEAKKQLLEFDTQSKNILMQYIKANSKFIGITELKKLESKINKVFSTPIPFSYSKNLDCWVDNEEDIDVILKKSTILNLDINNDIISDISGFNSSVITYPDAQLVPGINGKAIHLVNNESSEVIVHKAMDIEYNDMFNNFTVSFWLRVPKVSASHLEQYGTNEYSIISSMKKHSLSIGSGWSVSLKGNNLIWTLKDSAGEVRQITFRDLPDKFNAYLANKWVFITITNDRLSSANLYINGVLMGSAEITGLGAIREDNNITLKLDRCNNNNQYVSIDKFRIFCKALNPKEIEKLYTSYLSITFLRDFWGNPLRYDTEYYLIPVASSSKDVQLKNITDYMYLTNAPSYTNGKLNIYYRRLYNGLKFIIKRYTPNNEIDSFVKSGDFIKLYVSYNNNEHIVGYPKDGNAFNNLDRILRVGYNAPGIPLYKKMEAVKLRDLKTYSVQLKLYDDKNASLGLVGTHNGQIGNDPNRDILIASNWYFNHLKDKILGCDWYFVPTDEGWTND

[2] = biological target: T1, tetanus neurotoxin (TeNT), authentic …; assay: cell-based or functional assay
[3] = biological target: T1, tetanus neurotoxin (TeNT), authentic …; assay: GT1b-TeNT inhibition ELISA
Target sequence in this assay (P04958 2-457 limits assumed, chain 1 of 2): as the sequence (P04958 2-457 limits assumed, chain 1 of 2) above
Target sequence in this assay (P04958 458-1315 limits assumed, chain 2 of 2): as the sequence (P04958 458-1315 limits assumed, chain 2 of 2) above

[4] = biological target: T1, tetanus neurotoxin (TeNT), authentic …; assay: ELISA: directly coated TeNT, anti-his6 PO
Target sequence in this assay (P04958 2-457 limits assumed, chain 1 of 2): as the sequence (P04958 2-457 limits assumed, chain 1 of 2) above
Target sequence in this assay (P04958 458-1315 limits assumed, chain 2 of 2): as the sequence (P04958 458-1315 limits assumed, chain 2 of 2) above

[5] = biological target: T1, tetanus neurotoxin (TeNT), authentic …; assay: bridging ELISA: coated TeNT, SDA, biotinylated TeNT, StrepPO (bivalent binding)
Target sequence in this assay (P04958 2-457 limits assumed, chain 1 of 2): as the sequence (P04958 2-457 limits assumed, chain 1 of 2) above
Target sequence in this assay (P04958 458-1315 limits assumed, chain 2 of 2): as the sequence (P04958 458-1315 limits assumed, chain 2 of 2) above

[6] = biological target: T1, tetanus neurotoxin (TeNT), authentic …; assay: GT1b-TeNT inhibition ELISA; remark: listed apart in the source
Target sequence in this assay (P04958 2-457 limits assumed, chain 1 of 2): as the sequence (P04958 2-457 limits assumed, chain 1 of 2) above
Target sequence in this assay (P04958 458-1315 limits assumed, chain 2 of 2): as the sequence (P04958 458-1315 limits assumed, chain 2 of 2) above

[7] = biological target: T1, tetanus neurotoxin (TeNT), authentic …; assay: ELISA: directly coated TeNT, anti-his6 PO; remark: listed apart in the source
[8] = biological target: T1, tetanus neurotoxin (TeNT), authentic …; assay: ELISA: directly coated TeNT, goat anti-llama Ig PO
Target sequence in this assay (P04958 2-457 limits assumed, chain 1 of 2): as the sequence (P04958 2-457 limits assumed, chain 1 of 2) above
Target sequence in this assay (P04958 458-1315 limits assumed, chain 2 of 2): as the sequence (P04958 458-1315 limits assumed, chain 2 of 2) above

[9] = biological target: T1, tetanus neurotoxin (TeNT), authentic …; assay: bridging ELISA: coated dog IgG, SDA, biotinylated TeNT, StrepPO
[10] = biological target: T1, tetanus neurotoxin (TeNT), authentic …; assay: ELISA: directly coated TeNT, goat anti-llama Ig PO; remark: listed apart in the source
[11] = biological target: T1, tetanus neurotoxin (TeNT), authentic …; assay: bridging ELISA: coated dog IgG, SDA, biotinylated TeNT, StrepPO; remark: listed apart in the source
[12] = biological target: T1, tetanus neurotoxin (TeNT), authentic …; assay: bridging ELISA: coated TeNT, SDA, biotinylated TeNT, StrepPO (bivalent binding); remark: listed apart in the source
[13] = biological target: dog IgG (chrompure dog IgG) (dog)
[14] = biological target: dog IgG (chrompure dog IgG) (dog); remark: listed apart in the source
[15] = biological target: T2, tetanus neurotoxin (TeNT), authentic tetanus holotoxin (Clostridium tetani, UniProt P04958 2-1315); assay: ELISA, cAb-TT2 captured TeNT, E. coli supernatant
[16] = biological target: T3, recombinant tetanus toxin fragment C (rTTC) (Clostridium tetani, UniProt P04958 865-1315); assay: ELISA, directly coated rTTC, E. coli supernatant
T3 sequence: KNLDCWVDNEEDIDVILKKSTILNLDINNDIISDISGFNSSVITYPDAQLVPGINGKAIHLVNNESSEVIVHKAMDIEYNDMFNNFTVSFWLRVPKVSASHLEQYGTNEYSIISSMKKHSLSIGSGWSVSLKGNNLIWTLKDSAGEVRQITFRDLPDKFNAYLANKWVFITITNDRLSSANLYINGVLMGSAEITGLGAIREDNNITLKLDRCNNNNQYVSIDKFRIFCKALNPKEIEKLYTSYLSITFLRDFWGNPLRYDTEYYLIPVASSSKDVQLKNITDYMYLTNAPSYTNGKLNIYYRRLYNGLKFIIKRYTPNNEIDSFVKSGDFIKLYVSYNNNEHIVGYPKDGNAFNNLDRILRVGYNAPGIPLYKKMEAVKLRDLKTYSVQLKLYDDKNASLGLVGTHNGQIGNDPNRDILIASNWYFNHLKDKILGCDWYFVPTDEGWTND

[17] = biological target: T2, tetanus neurotoxin (TeNT), authentic …; assay: GT1b-TeNT inhibition ELISA (no SDA: 1.302, 1.257)
[18] = biological target: T2, tetanus neurotoxin (TeNT), authentic …; assay: ELISA, directly coated TeNT, E. coli supernatant
[19] = biological target: T3, recombinant tetanus toxin fragment C …; assay: ELISA, directly coated rTTC
[20] = biological target: T4, horse albumin (horse Alb) (horse, UniProt P35747 25-607); assay: bridging ELISA: cAb-TT2-captured TeNT, SDA, biotinylated horse Alb, StrepPO
T4 sequence (P35747 25-607 limits assumed): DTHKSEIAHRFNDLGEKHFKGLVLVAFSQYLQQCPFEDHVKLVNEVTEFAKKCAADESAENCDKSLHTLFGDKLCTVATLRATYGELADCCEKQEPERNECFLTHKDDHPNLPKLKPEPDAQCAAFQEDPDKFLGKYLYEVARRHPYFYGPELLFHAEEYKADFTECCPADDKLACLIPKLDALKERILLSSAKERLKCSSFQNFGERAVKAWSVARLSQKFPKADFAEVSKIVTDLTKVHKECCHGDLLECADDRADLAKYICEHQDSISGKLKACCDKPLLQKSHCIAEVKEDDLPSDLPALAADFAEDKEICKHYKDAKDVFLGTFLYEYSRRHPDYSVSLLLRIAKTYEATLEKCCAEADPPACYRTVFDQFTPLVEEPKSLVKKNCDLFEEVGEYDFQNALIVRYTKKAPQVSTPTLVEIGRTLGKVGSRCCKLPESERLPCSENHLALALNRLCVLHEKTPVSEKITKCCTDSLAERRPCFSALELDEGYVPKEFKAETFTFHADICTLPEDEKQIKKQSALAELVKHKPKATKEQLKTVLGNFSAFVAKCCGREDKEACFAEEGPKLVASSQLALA

dog albumin (dog Alb) [21] = biological target: T5, dog albumin (dog Alb) (dog, UniProt P49822 25-608); assay: ELISA: coated dog Alb, anti-his6 PO
T5 construct: also called Canine albumin
T5 sequence (P49822 25-608 limits assumed): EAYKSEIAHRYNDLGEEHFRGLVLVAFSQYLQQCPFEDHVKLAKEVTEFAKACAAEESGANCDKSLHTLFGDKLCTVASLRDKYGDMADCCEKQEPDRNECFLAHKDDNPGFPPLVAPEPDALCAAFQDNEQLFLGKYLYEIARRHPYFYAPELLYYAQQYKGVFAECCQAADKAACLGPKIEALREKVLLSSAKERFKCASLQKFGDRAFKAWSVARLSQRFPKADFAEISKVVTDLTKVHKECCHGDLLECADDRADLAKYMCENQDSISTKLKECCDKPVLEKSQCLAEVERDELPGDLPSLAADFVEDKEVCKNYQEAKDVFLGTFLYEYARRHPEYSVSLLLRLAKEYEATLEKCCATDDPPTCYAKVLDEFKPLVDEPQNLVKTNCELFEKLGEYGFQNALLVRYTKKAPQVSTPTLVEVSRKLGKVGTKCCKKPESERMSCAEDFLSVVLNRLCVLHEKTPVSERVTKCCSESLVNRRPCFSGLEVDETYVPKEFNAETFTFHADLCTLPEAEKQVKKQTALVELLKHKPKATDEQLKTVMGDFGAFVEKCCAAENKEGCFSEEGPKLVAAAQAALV

[22] = biological target: T4, horse albumin (horse Alb); assay: bridging ELISA: cAb-TT2-captured TeNT, SDA, biotinylated horse Alb, StrepPO; remark: listed apart in the source
dog albumin (dog Alb) [23] = biological target: T5, dog albumin (dog Alb); assay: ELISA: coated dog Alb, anti-his6 PO; remark: listed apart in the source

Row | Binder | Kd [1] | koff [1] | kon [1] | Endpoint dilution factor [2] | SDA concentration providing full protection [2] | minimal absorbance value (GT1b-TeNT inhibition) [3] | maximal absorbance value [4] | maximal absorbance value [5] | Effective SDA Concentration at A450 0.56 [6] | Effective SDA Concentration at A450 0.15 [7] | maximal absorbance value [8] | maximal absorbance value [9] | Effective SDA Concentration at A450 0.15 [10] | Effective SDA Concentration at A450 0.3 [11] | Effective SDA Concentration at A450 0.3 [12] | maximal absorbance value [13] | binding result [19] | other results
1 | B1 | 123 pM | 8.24e-05 s⁻¹ | 670000 M⁻¹ s⁻¹ | 2.4 | 1000 nM | 0.22 A450 | 1.44 A450 | 0.98 A450 | 93 ng/mL | 3.4 ng/mL | 1.2 A450 | 1.61 A450 | 2 ng/mL | < 0.49 ng/mL | 9.6 ng/mL | 1.18 A450 |  | Potency IU/mg [2]: 1.04 IU/mg; Effective SDA Concentration at A450 0.2 [14]: 46 ng/mL
2 | B2 |  |  |  |  |  |  |  |  |  |  |  |  |  |  |  |  | no binding (tested: tenfold diluted supernatant) | absorbance at 450 nm [15]: 0.511 A450; absorbance at 450 nm [16]: 0.06 A450; absorbance at 450 nm [17]: 1.34 A450; absorbance at 450 nm [18]: 0.078 A450
3 | B3 |  |  |  |  |  |  |  |  |  |  |  |  |  |  |  |  | no binding | 
4 | B4 |  |  |  |  |  |  |  |  |  |  |  |  |  |  |  |  |  | maximal absorbance value [20]: 1.1 A450; Effective SDA Concentration at A450 0.2 (dog albumin (dog Alb) [21]): 13 ng/mL; Effective SDA Concentration at A450 0.7 [22]: 11 ng/mL; maximal absorbance value (dog albumin (dog Alb) [23]): 1.91 A450
5 | B5 |  |  |  |  |  | 0.12 A450 | 0.37 A450 | 0.29 A450 | 131 ng/mL | 37 ng/mL | 1.23 A450 | 1.3 A450 | 4.3 ng/mL | 8.3 ng/mL | > 1000 ng/mL | 0.07 A450 |  | 
6 | B6 |  |  |  |  |  |  |  |  |  |  |  |  |  |  |  |  | no binding (tested: tenfold diluted supernatant) | absorbance at 450 nm [15]: 0.534 A450; absorbance at 450 nm [16]: 0.061 A450; absorbance at 450 nm [17]: 1.29 A450; absorbance at 450 nm [18]: 0.091 A450
7 | B7 |  |  |  |  |  |  |  |  |  |  |  |  |  |  |  |  | no binding | 
8 | B8 | 15.8 pM | 6.77e-06 s⁻¹ | 429000 M⁻¹ s⁻¹ | 2.8 | 500 nM | 0.13 A450 | 1.51 A450 | 0.78 A450 | 77 ng/mL | 4.9 ng/mL | 1.16 A450 | 1.47 A450 | 2 ng/mL | 2.2 ng/mL | 23 ng/mL | 1 A450 |  | Potency IU/mg [2]: 1.21 IU/mg; Effective SDA Concentration at A450 0.2 [14]: 63 ng/mL
9 | B9 | 98.7 pM | 0.000121 s⁻¹ | 1.23e+06 M⁻¹ s⁻¹ | < 1 | > 1000 nM | 0.77 A450 | 0.06 A450 | 0.19 A450 | > 1000 ng/mL | > 1000 ng/mL | 0.09 A450 | 1.32 A450 | > 1000 ng/mL | 9.1 ng/mL | > 1000 ng/mL | 0.18 A450 |  | 
